From US20250049939A1 (TUBULIS, published 2025) come the findings set out here.

Experiment [1] has as its target T1, VEGFR-2 on Ba/F3 cells (UniProt P35968 20-1356, limits assumed).
T1 construct: whole, on cells
Nature of the experiment: flow cytometry, cell surface binding to Ba/F3 pMIY cells expressing VEGFR, MFI ratio normalized to IgG1, mean ± s.d. of n=3. On the technique in general: A flow cytometer gives signals particle by particle.

Experiment [2] addresses T2, CSF1R on Ba/F3 cells (UniProt P07333 20-972, limits assumed).
T2 construct: whole, on cells
As to the kind of experiment: flow cytometry, cell surface binding to Ba/F3 pMIY cells expressing CSF-1R, MFI ratio normalized to IgG1, mean ± s.d. of n=3.

Experiment [3] addresses T3, PDGFRα on Ba/F3 cells (UniProt P16234 24-1089, limits assumed).
T3 construct: whole, on cells
Nature of the experiment: flow cytometry, cell surface binding to Ba/F3 pMIY cells expressing PDGFRα, MFI ratio normalized to IgG1, mean ± s.d. of n=3.

In experiment [4] the target is CD16 (Fc gamma receptor) on Ba/F3 cells (human, UniProt P08637 17-254). As to the kind of experiment: flow cytometry, cell surface binding to Ba/F3-pMIY cells expressing CD16, specific MFI, mean ± s.d. of n=3.
Experiment [5] addresses T4, c-KIT on Ba/F3 cells (UniProt P10721 26-976, limits assumed).
T4 construct: whole, on cells
Nature of the experiment: flow cytometry, cell surface binding to Ba/F3 pMIY cells expressing c-KIT, MFI ratio normalized to IgG1, mean ± s.d. of n=3.

The target in experiment [6] is T5, human CD64 (high affinity Fc receptor, FCGR1) on cells (human, UniProt P12314 16-374).
T5 construct: whole, on cells; also called hCD64; human FCGR1
Nature of the experiment: flow cytometry, cell surface binding to Ba/F3-pMIY cells expressing CD64, specific MFI, mean ± s.d. of n=3.

T4 sequence (P10721 26-976 limits assumed): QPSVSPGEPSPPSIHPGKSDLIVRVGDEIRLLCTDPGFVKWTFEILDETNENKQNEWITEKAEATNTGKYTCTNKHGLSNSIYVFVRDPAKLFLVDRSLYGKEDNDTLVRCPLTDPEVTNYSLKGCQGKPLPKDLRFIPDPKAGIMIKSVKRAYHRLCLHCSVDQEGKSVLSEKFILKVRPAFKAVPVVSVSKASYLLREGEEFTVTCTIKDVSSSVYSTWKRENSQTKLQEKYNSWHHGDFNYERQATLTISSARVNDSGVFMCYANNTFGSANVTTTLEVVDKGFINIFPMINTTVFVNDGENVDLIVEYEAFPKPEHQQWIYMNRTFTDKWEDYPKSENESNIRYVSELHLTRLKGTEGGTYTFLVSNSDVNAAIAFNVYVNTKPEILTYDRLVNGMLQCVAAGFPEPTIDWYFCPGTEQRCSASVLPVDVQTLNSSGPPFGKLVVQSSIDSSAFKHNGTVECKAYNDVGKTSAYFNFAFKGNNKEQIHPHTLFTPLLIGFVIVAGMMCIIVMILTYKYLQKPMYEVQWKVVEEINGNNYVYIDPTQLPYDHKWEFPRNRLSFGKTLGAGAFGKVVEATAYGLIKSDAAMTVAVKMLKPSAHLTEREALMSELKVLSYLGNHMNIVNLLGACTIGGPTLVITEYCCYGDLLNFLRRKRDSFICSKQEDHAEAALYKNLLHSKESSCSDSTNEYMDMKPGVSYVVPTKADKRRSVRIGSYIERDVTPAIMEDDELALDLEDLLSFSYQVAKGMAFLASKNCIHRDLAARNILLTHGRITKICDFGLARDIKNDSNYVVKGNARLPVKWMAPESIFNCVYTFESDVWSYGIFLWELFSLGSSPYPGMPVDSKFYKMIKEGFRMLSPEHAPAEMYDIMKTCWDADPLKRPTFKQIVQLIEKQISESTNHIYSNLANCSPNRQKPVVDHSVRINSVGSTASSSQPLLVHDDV
T5 sequence (P12314 16-374): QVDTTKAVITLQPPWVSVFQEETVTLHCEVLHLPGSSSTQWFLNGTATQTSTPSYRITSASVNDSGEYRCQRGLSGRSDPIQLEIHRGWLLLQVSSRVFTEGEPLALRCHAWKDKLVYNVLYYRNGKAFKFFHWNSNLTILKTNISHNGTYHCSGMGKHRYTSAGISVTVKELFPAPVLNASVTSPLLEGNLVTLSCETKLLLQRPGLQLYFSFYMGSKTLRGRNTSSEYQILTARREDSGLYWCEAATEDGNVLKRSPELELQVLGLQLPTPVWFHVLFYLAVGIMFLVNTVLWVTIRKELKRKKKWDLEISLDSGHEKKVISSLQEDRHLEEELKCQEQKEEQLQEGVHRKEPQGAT
T1 sequence (P35968 20-1356 limits assumed): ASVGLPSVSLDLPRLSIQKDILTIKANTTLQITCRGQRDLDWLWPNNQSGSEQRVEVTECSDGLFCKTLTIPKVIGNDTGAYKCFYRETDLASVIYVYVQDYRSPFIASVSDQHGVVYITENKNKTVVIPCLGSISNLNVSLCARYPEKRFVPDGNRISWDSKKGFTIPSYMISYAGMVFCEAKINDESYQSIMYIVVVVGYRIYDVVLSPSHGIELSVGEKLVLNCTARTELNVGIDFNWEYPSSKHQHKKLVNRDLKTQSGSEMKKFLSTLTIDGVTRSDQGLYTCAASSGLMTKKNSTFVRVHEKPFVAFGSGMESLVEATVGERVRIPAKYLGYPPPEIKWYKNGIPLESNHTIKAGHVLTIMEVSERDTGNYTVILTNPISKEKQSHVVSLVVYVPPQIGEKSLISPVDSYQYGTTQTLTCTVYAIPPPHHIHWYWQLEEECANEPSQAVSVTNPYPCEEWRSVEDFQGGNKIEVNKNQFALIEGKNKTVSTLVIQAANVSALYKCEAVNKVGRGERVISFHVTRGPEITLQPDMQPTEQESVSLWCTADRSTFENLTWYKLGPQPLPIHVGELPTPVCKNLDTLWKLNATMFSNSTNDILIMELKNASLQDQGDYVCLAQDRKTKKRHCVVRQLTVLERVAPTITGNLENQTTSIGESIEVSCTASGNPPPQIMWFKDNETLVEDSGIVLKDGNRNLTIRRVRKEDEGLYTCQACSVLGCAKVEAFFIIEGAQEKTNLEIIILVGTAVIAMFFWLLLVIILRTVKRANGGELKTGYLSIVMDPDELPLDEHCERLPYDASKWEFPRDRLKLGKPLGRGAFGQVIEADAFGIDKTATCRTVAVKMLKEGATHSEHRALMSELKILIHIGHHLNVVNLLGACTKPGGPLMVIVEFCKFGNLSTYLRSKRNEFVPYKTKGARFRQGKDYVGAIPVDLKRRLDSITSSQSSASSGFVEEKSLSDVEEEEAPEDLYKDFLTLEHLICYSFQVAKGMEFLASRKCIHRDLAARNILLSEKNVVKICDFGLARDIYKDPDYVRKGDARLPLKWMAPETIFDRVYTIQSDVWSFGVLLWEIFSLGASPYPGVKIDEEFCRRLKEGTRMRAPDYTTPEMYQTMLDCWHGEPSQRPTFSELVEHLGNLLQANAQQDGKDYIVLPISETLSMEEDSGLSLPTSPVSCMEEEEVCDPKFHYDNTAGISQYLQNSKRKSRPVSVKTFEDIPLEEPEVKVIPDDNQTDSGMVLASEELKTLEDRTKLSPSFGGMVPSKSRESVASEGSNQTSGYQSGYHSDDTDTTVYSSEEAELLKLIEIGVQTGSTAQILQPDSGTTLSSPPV
T3 sequence (P16234 24-1089 limits assumed): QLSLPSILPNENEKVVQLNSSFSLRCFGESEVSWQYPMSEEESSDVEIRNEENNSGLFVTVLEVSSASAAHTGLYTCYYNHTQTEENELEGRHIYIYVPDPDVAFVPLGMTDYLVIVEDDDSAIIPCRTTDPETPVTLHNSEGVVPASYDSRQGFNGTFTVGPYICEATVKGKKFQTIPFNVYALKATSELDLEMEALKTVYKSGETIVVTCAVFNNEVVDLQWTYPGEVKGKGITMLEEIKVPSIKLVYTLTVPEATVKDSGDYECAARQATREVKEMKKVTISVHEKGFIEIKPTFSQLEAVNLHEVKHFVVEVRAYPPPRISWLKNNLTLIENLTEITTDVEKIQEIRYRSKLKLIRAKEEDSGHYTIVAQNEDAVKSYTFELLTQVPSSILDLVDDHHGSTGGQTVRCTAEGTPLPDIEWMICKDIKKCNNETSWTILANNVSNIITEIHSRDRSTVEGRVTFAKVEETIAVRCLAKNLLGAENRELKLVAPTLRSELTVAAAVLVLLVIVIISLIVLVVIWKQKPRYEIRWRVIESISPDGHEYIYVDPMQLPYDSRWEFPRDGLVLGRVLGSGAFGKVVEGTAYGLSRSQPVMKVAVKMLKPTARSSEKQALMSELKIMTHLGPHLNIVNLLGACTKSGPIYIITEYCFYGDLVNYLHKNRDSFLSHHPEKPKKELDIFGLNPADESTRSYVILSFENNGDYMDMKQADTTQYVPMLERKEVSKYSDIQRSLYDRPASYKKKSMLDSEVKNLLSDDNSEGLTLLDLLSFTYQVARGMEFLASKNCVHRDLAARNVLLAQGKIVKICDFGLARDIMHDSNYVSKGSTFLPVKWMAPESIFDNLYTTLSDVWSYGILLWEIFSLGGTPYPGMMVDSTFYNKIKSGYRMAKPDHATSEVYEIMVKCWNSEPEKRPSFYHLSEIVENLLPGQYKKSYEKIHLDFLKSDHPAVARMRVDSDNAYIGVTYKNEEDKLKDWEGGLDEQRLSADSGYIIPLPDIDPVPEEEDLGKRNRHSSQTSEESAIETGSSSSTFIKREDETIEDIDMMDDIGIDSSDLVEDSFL
T2 sequence (P07333 20-972 limits assumed): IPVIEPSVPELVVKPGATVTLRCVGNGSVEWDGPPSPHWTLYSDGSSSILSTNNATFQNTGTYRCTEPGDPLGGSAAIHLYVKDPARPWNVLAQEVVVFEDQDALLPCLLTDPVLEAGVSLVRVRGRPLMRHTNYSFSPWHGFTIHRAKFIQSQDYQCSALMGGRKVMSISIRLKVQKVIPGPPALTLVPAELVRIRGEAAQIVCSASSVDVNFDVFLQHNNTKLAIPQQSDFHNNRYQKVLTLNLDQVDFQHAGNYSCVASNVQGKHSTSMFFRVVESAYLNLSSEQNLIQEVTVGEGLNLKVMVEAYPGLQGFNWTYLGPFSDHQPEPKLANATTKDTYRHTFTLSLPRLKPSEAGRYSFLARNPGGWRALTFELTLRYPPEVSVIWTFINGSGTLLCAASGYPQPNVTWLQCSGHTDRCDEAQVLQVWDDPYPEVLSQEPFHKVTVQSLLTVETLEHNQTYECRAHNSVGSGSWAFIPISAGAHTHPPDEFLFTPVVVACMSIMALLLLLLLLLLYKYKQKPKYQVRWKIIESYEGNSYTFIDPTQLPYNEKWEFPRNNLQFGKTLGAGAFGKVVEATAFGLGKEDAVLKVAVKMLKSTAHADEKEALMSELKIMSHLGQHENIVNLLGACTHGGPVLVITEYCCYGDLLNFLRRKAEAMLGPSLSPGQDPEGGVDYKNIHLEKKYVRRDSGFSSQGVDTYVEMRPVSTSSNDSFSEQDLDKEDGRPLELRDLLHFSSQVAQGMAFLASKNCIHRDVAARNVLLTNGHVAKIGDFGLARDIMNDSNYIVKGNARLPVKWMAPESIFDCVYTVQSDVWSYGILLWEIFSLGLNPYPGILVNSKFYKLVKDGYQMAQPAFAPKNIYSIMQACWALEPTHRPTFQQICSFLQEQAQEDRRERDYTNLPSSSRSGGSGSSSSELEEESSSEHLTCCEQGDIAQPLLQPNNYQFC
Sequence of CD16 (Fc gamma receptor) on Ba/F3 cells (P08637 17-254 limits assumed): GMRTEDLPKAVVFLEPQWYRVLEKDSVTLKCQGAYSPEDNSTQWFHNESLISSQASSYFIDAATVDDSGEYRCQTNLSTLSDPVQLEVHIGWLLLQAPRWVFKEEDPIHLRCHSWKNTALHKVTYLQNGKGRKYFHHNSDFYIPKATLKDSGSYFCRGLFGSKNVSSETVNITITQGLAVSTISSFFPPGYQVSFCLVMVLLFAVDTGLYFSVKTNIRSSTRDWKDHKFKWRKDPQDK

B1: Humanized clone 13 of 20D9 (VH3 + VK1; HC-LALA, same as Clone #3 but with LALA mutation in HC constant region) (antibody, human IgG1, kappa, L234A L235A)
heavy: not shown
light: DIQMTQSPSVLSASVGDRVTINCRASQNINKELNWYQQKLGEAPKLLIYNTNNLQSGVPSRFSGSGSGTDYTLTISSLQPEDVATYFCFQHKSWPLTFGSGTKLEIKRTVAAPSVFIFPPSDEQLKSGTASVVCLLNNFYPREAKVQWKVDNALQSGNSQESVTEQDSKDSTYSLSSTLTLSKADYEKHKVYACEVTHQGLSSPVTKSFNRGEC
notes: also called #3-LALA; #3-LALA mab
In the case of B1, the binding result in experiment [1] is listed as “no binding”; in experiment [2] it was “no binding”; in experiment [3], “no binding”; in experiment [4] it was “no binding”; in experiment [5] it was “no binding”; in experiment [6] it was “binds”.
